According to patent US20220119534A1 (DRAGONFLY THERAPEUTICS, published 2022):

Tests used:
[1] = target: T1, Human CLEC12A expressed on cells (Ba/F3-hCLEC12A, PL21, HL60) (human, UniProt Q5QGZ9 1-265); assay: cell-based or functional assay
T1 sequence: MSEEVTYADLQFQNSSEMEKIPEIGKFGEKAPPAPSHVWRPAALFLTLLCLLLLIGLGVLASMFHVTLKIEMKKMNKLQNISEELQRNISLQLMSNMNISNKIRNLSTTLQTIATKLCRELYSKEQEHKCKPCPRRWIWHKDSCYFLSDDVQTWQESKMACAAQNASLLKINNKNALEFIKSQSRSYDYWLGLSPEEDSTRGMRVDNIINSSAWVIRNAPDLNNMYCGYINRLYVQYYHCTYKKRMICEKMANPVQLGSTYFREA

Cynomolgus CD64 (FcγRI) = target: T2, Cynomolgus CD64 (FcγRI) (cynomolgus monkey, UniProt A0A2K5U901 33-309, Biotinylated and captured on the CAP chip (p-1094); the biotin site is not stated.); assay: SPR, summary of FcγR affinities (n = 3)
T2 construct: Bought recombinant receptor; also called cFcγRI; Cynomolgus FcγRI; not shown: The vendor's biotinylation and purification tag (ACRO FCA-C82E8)
T2 sequence (A0A2K5U901 entry or part of it limits assumed): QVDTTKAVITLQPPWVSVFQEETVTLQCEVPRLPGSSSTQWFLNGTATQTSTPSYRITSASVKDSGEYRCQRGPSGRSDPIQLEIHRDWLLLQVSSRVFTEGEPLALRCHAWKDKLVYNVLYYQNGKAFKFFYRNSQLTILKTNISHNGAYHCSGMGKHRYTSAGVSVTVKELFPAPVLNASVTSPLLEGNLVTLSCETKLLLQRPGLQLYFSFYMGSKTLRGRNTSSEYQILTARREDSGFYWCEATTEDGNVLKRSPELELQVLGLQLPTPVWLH

[2] = target: T3, Cynomolgus CD16 (FcγRIII) (cynomolgus monkey, UniProt Q8SPW2 17-208, biotinylated); assay: SPR, summary of FcγR affinities (n = 3)
T3 construct: Bought recombinant receptor; also called cFcγRIII; Cyno FcγRIII
T3 sequence (Q8SPW2 17-208 limits assumed): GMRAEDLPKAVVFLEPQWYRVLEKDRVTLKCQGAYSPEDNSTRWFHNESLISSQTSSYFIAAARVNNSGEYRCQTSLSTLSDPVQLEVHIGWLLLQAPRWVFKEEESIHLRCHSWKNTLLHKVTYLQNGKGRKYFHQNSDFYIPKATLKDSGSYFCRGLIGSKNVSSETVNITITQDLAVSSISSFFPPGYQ
Experimental: (§1) Human and cynomolgus CD64, high and low affinity alleles of CD16a (V158 and F158, respectively), two alleles of CD32a (H131 and R131), CD16b, CD32b and cynomolgus CD16 were captured via biotin on a primed (according to the manufacturers instruction) Biacore chip. […] Due to irreversibility of streptavidin-biotin interaction, the capture step for all receptors except FcγRI (CD64) was performed just once prior to the start of the binding experiment. hCD64 and cyno CD64 capture on the CAP chip surface was performed during each cycle in accordance with the manufacturer's instructions for the Biotin CAPture kit.
Detailed description of each individual receptor binding is presented below.

[3] = target: T4, Human CD32a R131 (FcγRIIa R131) (human, UniProt P12318 36-218, limits assumed, biotinylated); assay: SPR 25C, average
T4 construct: Bought recombinant receptor; also called hFcγRIIa R131; FcgRIIa R131
T4 sequence (looked up): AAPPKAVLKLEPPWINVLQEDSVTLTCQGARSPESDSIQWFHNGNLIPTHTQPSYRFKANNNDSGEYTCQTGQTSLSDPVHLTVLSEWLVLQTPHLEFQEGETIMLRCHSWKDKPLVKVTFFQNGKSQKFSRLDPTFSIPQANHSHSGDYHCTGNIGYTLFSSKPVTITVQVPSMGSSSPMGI
Experimental: as §1

[4] = target: T5, Human CD32a H131 (FcγRIIa H131) (human, UniProt P12318 36-218, limits assumed, biotinylated); assay: SPR 25C, average
T5 construct: Bought recombinant receptor; also called hFcγRIIa H131; FcgRIIa H131
T5 sequence (looked up): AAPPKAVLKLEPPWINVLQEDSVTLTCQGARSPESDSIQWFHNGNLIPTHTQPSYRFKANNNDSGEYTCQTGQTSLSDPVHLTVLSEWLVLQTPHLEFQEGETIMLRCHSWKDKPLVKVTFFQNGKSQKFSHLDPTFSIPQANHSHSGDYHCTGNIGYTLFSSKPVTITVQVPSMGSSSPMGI
Experimental: as §1

[5] = target: T6, Human CLEC12A-His (recombinant, K244 WT) (human, UniProt Q5QGZ9 65-265); assay: SPR, two-state fit (kd1); fully purified protein after low pH hold
T6 construct: Made in house (Dragonfly Tx); also called hCLEC12A; hCLEC12A-His; not shown: His tag
T6 sequence: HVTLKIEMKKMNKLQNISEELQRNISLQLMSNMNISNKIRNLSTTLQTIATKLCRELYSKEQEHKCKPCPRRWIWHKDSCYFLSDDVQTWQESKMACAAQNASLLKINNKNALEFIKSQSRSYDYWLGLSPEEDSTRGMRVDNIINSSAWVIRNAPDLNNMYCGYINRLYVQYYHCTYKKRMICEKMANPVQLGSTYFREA

% Max, ADCP activity of M0 macrophages against PL21 cells [1]: 15%
EC50, ADCP activity of M0 macrophages against PL21 cells [1]: 0.03 nM
Kd (Cynomolgus CD64 (FcγRI)): 1.5 nM
Kd [2]: 349 nM
Kd [3]: 1250 nM
Kd [4]: 900 nM
koff [5]: 0.0276 s⁻¹
B1: AB0089 TriNKET (bispecific antibody, human IgG1, kappa)
chain: QLQLQESGPGLVKPSETLSLTCTVSGFSLTNYGLHWIRQPPGKCLEWIGVIWVGGATDYNPSLKSRVTISVDTSKNQFSLKLSSVQAADTAVYYCAKGDYGDTLDYWGQGTLVTVSSGGGGSGGGGSGGGGSGGGGSDIQMTQSPSSLSASVGDRVTITCHASQNINFWLSWYQQKPGKAPKLLIYEASNLHTGVPSRFSGSGSGTDFTLTISSLQPEDFATYYCQQSHSYPLTFGCGTKLEIKGSDKTHTCPPCPAPELLGGPSVFLFPPKPKDTLMISRTPEVTCVVVDVSHEDPEVKFNWYVDGVEVHNAKTKPREEQYNSTYRVVSVLTVLHQDWLNGKEYKCKVSNKALPAPIEKTISKAKGQPREPRVYTLPPCRDELTKNQVSLTCLVKGFYPSDIAVEWESNGQPENNYKTTPPVLVSDGSFTLYSKLTVDKSRWQQGNVFSCSVMHEALHNHYTQKSLSLSPG
heavy: EVQLVESGGGLVKPGGSLRLSCAASGFTFSSYSMNWVRQAPGKGLEWVSSISSSSSYIYYADSVKGRFTISRDNAKNSLYLQMNSLRAEDTAVYYCARGAPIGAAAGWFDPWGQGTLVTVSSASTKGPSVFPLAPSSKSTSGGTAALGCLVKDYFPEPVTVSWNSGALTSGVHTFPAVLQSSGLYSLSSVVTVPSSSLGTQTYICNVNHKPSNTKVDKKVEPKSCDKTHTCPPCPAPELLGGPSVFLFPPKPKDTLMISRTPEVTCVVVDVSHEDPEVKFNWYVDGVEVHNAKTKPREEQYNSTYRVVSVLTVLHQDWLNGKEYKCKVSNKALPAPIEKTISKAKGQPREPQVCTLPPSRDELTENQVSLTCLVKGFYPSDIAVEWESNGQPENNYKTTPPVLDSDGSFFLYSWLTVDKSRWQQGNVFSCSVMHEALHNHYTQKSLSLSPG
light: DIQMTQSPSSVSASVGDRVTITCRASQGISSWLAWYQQKPGKAPKLLIYAASSLQSGVPSRFSGSGSGTDFTLTISSLQPEDFATYYCQQGVSFPRTFGGGTKVEIKRTVAAPSVFIFPPSDEQLKSGTASVVCLLNNFYPREAKVQWKVDNALQSGNSQESVTEQDSKDSTYSLSSTLTLSKADYEKHKVYACEVTHQGLSSPVTKSFNRGEC
notes: F3' format heterodimer of three chains; human IgG1 Fc with EW-RVT and Y349C/S354C mutations; also called AB0089 Lot AB0089-002; CLEC12A TriNKET AB0089
